Legend:
human PD-L1 ECD-His [1] = target: T1, human PD-L1 ECD-His (human, UniProt Q9NZQ7 19-238); assay: SPR, ratio of KD to ref-1
T1 construct: extracellular domain; Analyte in all SPR and BLI runs; also called hPD-L1_ECD-His; hPD-L1 ECD-His; not shown: His tag

human PD-L1 ECD-His [2] = target: T1, human PD-L1 ECD-His; assay: BLI, ratio of KD to ref-1
Procedure: (§1) Briefly, black 96-well plate was prepared with columns containing 200 μL/well of reagents required for determination of affinity. In general, Octet SA sensors were first placed in wells containing 1×Kinetics Buffer (PBS, 0.1% BSA, 0.02% Tween-20, pH 7.4) for 180 seconds to establish a baseline. […] Sensors were then regenerated by 3×5 second incubations in Regeneration Buffer (10 mM Glycine, pH 1.5) followed by a 5 second incubation in 1×Kinetics Buffer each time. Regeneration was repeated before measurement of each association/dissociation cycle. Sensors were then placed in fresh 1×Kinetics Buffer for 180 seconds to establish a baseline. Association was then measured by incubating the sensors for 5 minutes in wells containing hPD-L1-His followed by transferring to wells containing 1×Kinetics Buffer for 10 minutes to measure dissociation. Kinetics (ka, kd, and […] were measured by global fitting four association/dissociation cycles of data obtained from 1:3 serial dilutions of hPD-L1-His from 38.28 nM to 1.42 nM (one association/dissociation cycle for one concentration) with a 1:1 Langmuir binding model. All data were analyzed with Octet Data Analysis Software v.9.0 and representative of two independent experiments performed in duplicate.
(§2) All the data are representative of two independent experiments performed in duplicate.

human PD-L1 ECD-His [3] = target: T1, human PD-L1 ECD-His; assay: SPR, hPD-L1-His, comparison of IgG isotypes of PL2#3
human PD-L1 ECD-His [4] = target: T1, human PD-L1 ECD-His; assay: BLI Octet RED96, biotinylated antibody on SA sensor, hPD-L1-His analyte, 1:1 fit
Procedure: as §1, §2

[5] = target: T2, mouse PD-L1 on B16-F10 melanoma cells (mouse, UniProt Q9EP73 19-290); assay: flow cytometry on mouse PD-L1 expressing B16-F10 melanoma cells, FITC-labeled anti-human IgG Fcγ, MFI
T2 construct: whole, on cells
T2 sequence (Q9EP73 19-290): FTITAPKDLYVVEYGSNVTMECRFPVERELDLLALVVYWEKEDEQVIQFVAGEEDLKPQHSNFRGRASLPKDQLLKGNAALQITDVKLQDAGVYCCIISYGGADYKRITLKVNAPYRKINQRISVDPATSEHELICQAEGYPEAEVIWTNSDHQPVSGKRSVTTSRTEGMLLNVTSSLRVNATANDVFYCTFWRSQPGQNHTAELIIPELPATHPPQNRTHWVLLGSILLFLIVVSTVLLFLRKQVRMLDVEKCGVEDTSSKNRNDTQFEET

[6] = target: T3, human PD-L1 on cells (PHA-activated human T cells); PD-L1-transfected CHO-S cells; A375 melanoma cells; … (human, UniProt Q9NZQ7 19-290); assay: flow cytometry on A375 human melanoma cells, biotin-labeled anti-human IgG Fcγ and streptavidin-PE, MFI
T3 construct: whole, on cells; also called PD-L1 expressing T cells; PD-L1 expressing CHO-S cells
T3 sequence (Q9NZQ7 19-290): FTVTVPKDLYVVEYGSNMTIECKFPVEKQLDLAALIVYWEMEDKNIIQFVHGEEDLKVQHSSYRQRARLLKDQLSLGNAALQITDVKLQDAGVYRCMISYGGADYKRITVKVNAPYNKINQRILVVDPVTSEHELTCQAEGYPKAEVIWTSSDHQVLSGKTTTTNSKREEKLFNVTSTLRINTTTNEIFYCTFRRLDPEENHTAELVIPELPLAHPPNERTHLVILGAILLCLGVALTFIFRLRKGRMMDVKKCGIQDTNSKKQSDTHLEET

[7] = target: T3, human PD-L1 on cells (PHA-activated …); assay: flow cytometry on NCI-H292 human NSCLC cells, biotin-labeled anti-human IgG Fcγ and streptavidin-PE, MFI
[8] = target: T3, human PD-L1 on cells (PHA-activated …); assay: flow cytometry on PHA-activated human T cells, biotin-labeled anti-human IgG Fcγ and streptavidin-PE, MFI
[9] = target: T4, recombinant cynomolgus monkey PD-L1_ECD Fc-fusion protein (Sino Biological Inc.) (cynomolgus monkey, UniProt G7PSE7 19-238); assay: ELISA: cynomolgus monkey PD-L1_ECD/Fc coated (9 ng/well), peroxidase-labeled goat anti-human IgG F(ab)'2, TMB, OD450
T4 construct: Bought
T4 sequence (G7PSE7 entry or part of it limits assumed): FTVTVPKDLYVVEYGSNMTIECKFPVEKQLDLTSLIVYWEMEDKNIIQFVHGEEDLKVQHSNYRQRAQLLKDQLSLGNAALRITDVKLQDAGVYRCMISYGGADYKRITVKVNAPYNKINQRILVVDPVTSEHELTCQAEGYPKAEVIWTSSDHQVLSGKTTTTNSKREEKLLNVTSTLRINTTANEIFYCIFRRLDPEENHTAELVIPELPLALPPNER
Procedure: The recombinant cynomolgus monkey PD-L1_ECD Fc-fusion proteins were purchased from Sino Biological Inc. PD-L1_ECD/Fc (9 ng per well) were immobilized onto 96-well assay plat by incubating overnight at 4° C. Nonspecific binding sites were blocked using 5% skim milk in PBS for one hour at room temperature. After washing plates three times with PBST, indicated concentrations of anti-PD-L1 antibodies and HLX01 (negative control) were incubated with the immobilized proteins for one hour at room temperature. The plates were washed three times with PBST and then incubated for one hour at room temperature with peroxidase-labeled goat anti-human IgG F(ab)′2 (Jackson ImmunoResearch Laboratories) diluted 1/10,000 in PBS. After washing, plates were developed using TMB (eBioscience). The absorbance was read at the wavelength of 450 nm by Varioskan LUX microplate reader (Thermo Scientific).
HLX01 (anti-CD20 mAb) was used as the negative control.

human PD-L1 ECD-His [10] = target: T1, human PD-L1 ECD-His; assay: BLI, ratio of KD to parental PL3#7-19
Procedure: (§3) Briefly, black 96-well plate was prepared with columns containing 200 μL/well of reagents required for determination of affinity. In general, Octet anti-human-Fc sensors were first placed in wells containing 1×Kinetics Buffer (PBS, 0.1% BSA, 0.02% Tween-20, pH 7.4) for 180 seconds to establish a baseline. Sensors were then transferred to wells containing […] anti-PD-L1 variants for 600 seconds to load the anti-human-Fc tips. Sensors were then placed in fresh 1×Kinetics Buffer for 180 seconds to establish a baseline. Association was then measured by incubating the sensors for 3 minutes in wells containing hPD-L1-His followed by transferring to wells containing 1×Kinetics Buffer for 10 minutes to measure dissociation. Sensors were then regenerated by 3X5 second incubations in Regeneration Buffer (10 mM Glycine, pH 1.5) followed by a 5 second incubation in 1×Kinetics Buffer each time. Regeneration was repeated before measurement of each association/dissociation cycle. […] All data were analyzed with Octet Data Analysis Software v.9.0 and representative of two independent experiments performed in duplicate.
as §2

human PD-L1 ECD-His [11] = target: T1, human PD-L1 ECD-His; assay: BLI Octet RED96, antibody on AHC anti-human-Fc sensor, hPD-L1-His analyte, 1:1 fit
Procedure: as §3, §2

[12] = target: T3, human PD-L1 on cells (PHA-activated …); assay: flow cytometry on PD-L1 transfected CHO-S cells, anti-human IgG Fc-FITC, MFI
Procedure: Binding of tested de-glycosylated variants was assessed by incubating the PD-L1 expressing CHO-S cells (2E5 cells/well) with the serial-diluted antibodies in FACS buffer (PBS with 1% FBS) at 4° C. for 30 minutes. These cells were washed with flow buffer and then stained with anti-human IgG Fc-FITC (1:500×) at 4° C. for 30 minutes to detect antibody binding on the cell surface. Flow cytometric analyses were performed using CytoFlex (Beckman Coulter Inc.).

human PD-L1 ECD-His [13] = target: T1, human PD-L1 ECD-His; assay: Fab ELISA screen after panning on hPD-L1-His; coated antigen not named
human PD-L1 ECD-His [14] = target: T1, human PD-L1 ECD-His; assay: BLI, ratio of KD to parental PL3#7-43
Procedure: as §3, §2

T1 sequence (Q9NZQ7 19-238): as the sequence (G7PSE7 entry or part of it limits assumed) above, with T33A, S34A, N62S, Q68R, R82Q, L173F, A185T, I192T, L215H counted along it

Binder | Improvement over ref-1 (human PD-L1 ECD-His [2]) [fold] | Kd (human PD-L1 ECD-His [4]) [pM] | koff (human PD-L1 ECD-His [4]) [s⁻¹] | kon (human PD-L1 ECD-His [4]) [M⁻¹ s⁻¹] | EC50 (read off the curve) [6] [µg/mL] | EC50 (read off the curve) [7] [µg/mL] | EC50 (read off the curve) [9] [µg/mL] | Kd (human PD-L1 ECD-His [11]) [pM] | koff (human PD-L1 ECD-His [11]) [s⁻¹] | kon (human PD-L1 ECD-His [11]) [M⁻¹ s⁻¹] | EC50 (read off the curve) [12] [µg/mL] | Fold Difference (against parental variant) (human PD-L1 ECD-His [14]) [fold] | further results
PL2#3 mtIgG1 (N297A) (antibody, V domains shown, N297A mutant of human IgG1 Fc backbone) VH: EVQLVQSGGGLVKPGGSLRLSCAASGFTFSSYTMNWVRQAPGKGLEWVSSISSGSDYLYYADSVKGRFTISRDNAKNSLYLQMNSLRAEDTAVYYCARNELRWYPQAGAFDRWGQGTMVTVSS VL: QSVVTQPPSMSAAPGQRVTISCSGSSSYIESSYVGWYQQLPGTAPRLLIYDDDMRPSGIPDRFSGSKSGTSATLAITGLQTGDEADYYCEIWRSGLGGVFGGGTKLTVLS | 1 | 2460 | 0.000561 | 221000 | ~0.002 | ~0.01 | ~0.03 |  |  |  |  |  | Improvement over ref-1 (human PD-L1 ECD-His [1]): 2.86 fold; Kd (human PD-L1 ECD-His [3]): 221 pM; koff (human PD-L1 ECD-His [3]): 0.000286 s⁻¹; kon (human PD-L1 ECD-His [3]): 1.33e+06 M⁻¹ s⁻¹; binding result [5]: no binding (tested: 5 µg/mL); EC50 (read off the curve) [8]: ~0.003 µg/mL
PL3#7-19 deglyco3 mtIgG1 (antibody, V domains shown, N297A mutant human IgG1) VH: QVQLVQSGAEVKKPGSSVKVSCKASGGTFSSYPISWVRQAPGQGLEWMGRIIPILGIANYAQKFQGRVTITADKSTSTAYMELSSLRSEDTAVYYCARSRDGYAFGAFDVWGQGTLVTVSS VL: QSVVTQPPPVSGAPGQRVTISCTGSSSNIGGGYDVHWYQQLPGTAPKLLIYGNSQRPSGVPDRFSGSKSGTSASLAITGLQAEDEADYYCQTYDSSLSATVVFGGGTKLTVLG |  |  |  |  |  |  |  | 356 | 0.000176 | 506000 | ~0.2 |  | Fold Difference (against parental variant) (human PD-L1 ECD-His [10]): 1.74 fold
PL3#7-19 mtIgG1 (antibody, V domains shown, Antibody was biotinylated (NHS-PEG4-biotin, sites not specified) for the Octet assay of Table 11., N297A mutant human IgG1; also called PL3#7-19 parental mtIgG1) VH: QVQLVQSGAEVKKPGSSVKVSCKASGGTFSSYPISWVRQAPGQGLEWMGRIIPILGIANYAQKFQGRVTITADKSTSTAYMELSSLRSEDTAVYYCARSRDGYAFGAFDVWGQGTLVTVSS VL: QSVVTQPPPVSGAPGQRVTISCTGSSSNIGGGYDVHWYQQLPGTAPKLLIYGNSTRPSGVPDRFSGSKSGTSASLAITGLQAEDEADYYCQTYDSSLSATVVFGGGTKLTVLG | 4.57 | 538 | 0.000201 | 419000 | ~0.01 | ~0.02 | ~0.05 | 619 | 0.000207 | 328000 | ~0.2 |  | Fold Difference (against parental variant) (human PD-L1 ECD-His [10]): 1 fold; binding result [5]: no binding (tested: 5 µg/mL)
PL3#7-43 Fab (Fab, V domains shown) VH: QVQLVQSGAEVKKPGSSVKVSCKASGGTFSSYPISWVRQAPGQGLEWMGRIIPILGIANYAQKFQGRVTITADKSTSTAYMELSSLRSEDTAVYYCARSRPGYAFGAFDIWGQGTLVTVSS VL: QSVVTQPPPVSGAPGQRVTISCTGSSSNVGAGYDVHWYQQLPGTAPKLLIYGNSNRSSGVPDRFSGSKSGTSASLAITGLQAEDEADYYCQTYDSSGSARVVFGGGTKLTVL |  |  |  |  |  |  |  |  |  |  |  |  | binding result (human PD-L1 ECD-His [13]): binds
PL3#7-43 deglyco1 mtIgG1 (antibody, V domains shown, N297A mutant human IgG1; also called PL3#7-43 deglycol) VH: QVQLVQSGAEVKKPGSSVKVSCKASGGTFSSYPISWVRQAPGQGLEWMGRIIPILGIANYAQKFQGRVTITADKSTSTAYMELSSLRSEDTAVYYCARSRPGYAFGAFDIWGQGTLVTVSS VL: QSVVTQPPPVSGAPGQRVTISCTGSSSNVGAGYDVHWYQQLPGTAPKLLIYGNSNRPSGVPDRFSGSKSGTSASLAITGLQAEDEADYYCQTYDSSGSARVVFGGGTKLTVLG |  |  |  |  |  |  |  | 439 | 0.000271 | 612000 | ~0.2 | 0.79 | 
PL3#7-19 Fab (Fab, V domains shown) VH: QVQLVQSGAEVKKPGSSVKVSCKASGGTFSSYPISWVRQAPGQGLEWMGRIIPILGIANYAQKFQGRVTITADKSTSTAYMELSSLRSEDTAVYYCARSRDGYAFGAFDVWGQGTLVTVSS VL: QSVVTQPPPVSGAPGQRVTISCTGSSSNIGGGYDVHWYQQLPGTAPKLLIYGNSTRPSGVPDRFSGSKSGTSASLAITGLQAEDEADYYCQTYDSSLSATVVFGGGTKLTVL |  |  |  |  |  |  |  |  |  |  |  |  | binding result (human PD-L1 ECD-His [13]): binds

The next lines start with results.

Improvement over ref-1 (human PD-L1 ECD-His [2]) [fold] | Kd (human PD-L1 ECD-His [4]) [pM] | koff (human PD-L1 ECD-His [4]) [s⁻¹] | kon (human PD-L1 ECD-His [4]) [M⁻¹ s⁻¹] | EC50 (read off the curve) [6] [µg/mL] | EC50 (read off the curve) [7] [µg/mL] | EC50 (read off the curve) [9] [µg/mL] | Kd (human PD-L1 ECD-His [11]) [pM] | koff (human PD-L1 ECD-His [11]) [s⁻¹] | kon (human PD-L1 ECD-His [11]) [M⁻¹ s⁻¹] | EC50 (read off the curve) [12] [µg/mL] | Fold Difference (against parental variant) (human PD-L1 ECD-His [14]) [fold] | Binder | further results
 |  |  |  |  |  |  | 395 | 0.000238 | 600000 | ~0.2 | 0.87 | PL3#7-43 deglyco2 mtIgG1 (antibody, V domains shown, N297A mutant human IgG1; also called PL3#7-43 deg1yco2) VH: QVQLVQSGAEVKKPGSSVKVSCKASGGTFSSYPISWVRQAPGQGLEWMGRIIPILGIANYAQKFQGRVTITADKSTSTAYMELSSLRSEDTAVYYCARSRPGYAFGAFDIWGQGTLVTVSS VL: QSVVTQPPPVSGAPGQRVTISCTGSSSNVGAGYDVHWYQQLPGTAPKLLIYGNSQRSSGVPDRFSGSKSGTSASLAITGLQAEDEADYYCQTYDSSGSARVVFGGGTKLTVLG | 
7.86 | 313 | 0.000103 | 330000 | ~0.002 | ~0.01 | ~0.04 | 345 | 0.000212 | 628000 | ~0.2 | 1 | PL3#7-43 mtIgG1 (antibody, V domains shown, Antibody was biotinylated (NHS-PEG4-biotin, sites not specified) for the Octet assay of Table 11., N297A mutant human IgG1; also called PL3#7-43 parental mtIgG1) VH: QVQLVQSGAEVKKPGSSVKVSCKASGGTFSSYPISWVRQAPGQGLEWMGRIIPILGIANYAQKFQGRVTITADKSTSTAYMELSSLRSEDTAVYYCARSRPGYAFGAFDIWGQGTLVTVSS VL: QSVVTQPPPVSGAPGQRVTISCTGSSSNVGAGYDVHWYQQLPGTAPKLLIYGNSNRSSGVPDRFSGSKSGTSASLAITGLQAEDEADYYCQTYDSSGSARVVFGGGTKLTVLG | EC50 (read off the curve) [5]: ~0.005 µg/mL; EC50 (read off the curve) [8]: ~0.008 µg/mL

— patent publication US20190225691A1 (SHANGHAI HENLIUS BIOTECH, published 2019)
